Laboratory results as given in article PMC10010549.
Numbering of substitutions follows the chain as printed.

How the values were obtained:
Assay in all cases: EMSA
Conditions in all cases: pH 7.5, 30 min at 37 C
[1] = molecular target: T1, GntR (Streptococcus suis serotype 2 ZY05719) (UniProt A0A0H3MTN4)
T1 sequence: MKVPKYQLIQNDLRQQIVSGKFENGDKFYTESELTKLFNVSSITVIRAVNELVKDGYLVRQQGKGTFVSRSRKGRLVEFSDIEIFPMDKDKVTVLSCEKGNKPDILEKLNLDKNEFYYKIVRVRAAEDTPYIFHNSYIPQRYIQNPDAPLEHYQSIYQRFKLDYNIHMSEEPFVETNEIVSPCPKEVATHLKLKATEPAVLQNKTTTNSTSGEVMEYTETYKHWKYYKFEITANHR

[2] = molecular target: T2, GntR-S41A S41A (Streptococcus suis serotype 2 ZY05719) (UniProt A0A0H3MTN4)
T2 sequence: T1 sequence with S41A

[3] = molecular target: T3, GntR-S41E S41E (Streptococcus suis serotype 2 ZY05719) (UniProt A0A0H3MTN4)
T3 sequence: T1 sequence with S41E

## GCCATAATGTAAAATCTCACTTTCGAAAATATATTTTTTTACGAACTATATTATACAATATAAATGTTACCGATTTCAAAAAATATGCTCAGAATATCACATTTTTTTCAAAAAGTTTTTGAAATGCTATTTTCTTTAAACAATGTAAAGATATATAAAAGCAAAAACCTAGATTTCTCTAGGTTTCTCTTAACGTACTTGTTCAAAACGC (double strand) [nox promoter]
[1]
  binding: binds
[2]
  binding: binds
[3]
  binding: no binding
